Reference: IntAct's records for PubMed 29892012

What was measured:
acy3_human ACY3 = target: T1, acy3_human ACY3 (UniProt Q96HD9)
T1 sequence: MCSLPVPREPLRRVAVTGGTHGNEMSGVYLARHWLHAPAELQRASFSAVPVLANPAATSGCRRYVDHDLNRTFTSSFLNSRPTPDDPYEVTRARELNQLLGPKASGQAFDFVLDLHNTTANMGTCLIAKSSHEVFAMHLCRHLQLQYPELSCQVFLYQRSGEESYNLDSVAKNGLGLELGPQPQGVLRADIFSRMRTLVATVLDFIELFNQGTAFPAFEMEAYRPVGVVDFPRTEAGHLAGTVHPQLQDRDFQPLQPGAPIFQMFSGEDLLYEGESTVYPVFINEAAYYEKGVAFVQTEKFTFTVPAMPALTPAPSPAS

prdx3_human PRDX3 = target: T2, prdx3_human PRDX3 (UniProt P30048)
T2 sequence: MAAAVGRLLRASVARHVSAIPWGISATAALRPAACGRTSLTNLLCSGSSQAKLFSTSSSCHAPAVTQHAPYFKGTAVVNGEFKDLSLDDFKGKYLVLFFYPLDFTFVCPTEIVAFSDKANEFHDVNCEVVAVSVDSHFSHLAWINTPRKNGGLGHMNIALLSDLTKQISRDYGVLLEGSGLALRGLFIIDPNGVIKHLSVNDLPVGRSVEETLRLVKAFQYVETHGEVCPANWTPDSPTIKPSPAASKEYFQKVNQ

bend5_human BEND5 = target: T3, bend5_human BEND5 (UniProt Q7L4P6)
T3 sequence: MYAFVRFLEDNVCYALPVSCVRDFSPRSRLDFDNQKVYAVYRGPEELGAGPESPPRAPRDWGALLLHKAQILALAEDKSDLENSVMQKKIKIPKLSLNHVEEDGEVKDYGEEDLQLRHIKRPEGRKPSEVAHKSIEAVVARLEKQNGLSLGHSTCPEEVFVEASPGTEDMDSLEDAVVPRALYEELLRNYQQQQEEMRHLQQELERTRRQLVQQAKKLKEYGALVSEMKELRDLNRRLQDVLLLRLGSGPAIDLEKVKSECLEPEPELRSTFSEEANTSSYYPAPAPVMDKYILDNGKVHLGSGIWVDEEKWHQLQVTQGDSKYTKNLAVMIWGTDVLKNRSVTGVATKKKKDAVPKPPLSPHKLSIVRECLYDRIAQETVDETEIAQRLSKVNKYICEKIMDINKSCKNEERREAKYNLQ

dpyl2_human DPYSL2 = dpyl2_human DPYSL2 (UniProt Q16555)
prps1_human PRPS1 = target: T4, prps1_human PRPS1 (UniProt P60891)
T4 sequence: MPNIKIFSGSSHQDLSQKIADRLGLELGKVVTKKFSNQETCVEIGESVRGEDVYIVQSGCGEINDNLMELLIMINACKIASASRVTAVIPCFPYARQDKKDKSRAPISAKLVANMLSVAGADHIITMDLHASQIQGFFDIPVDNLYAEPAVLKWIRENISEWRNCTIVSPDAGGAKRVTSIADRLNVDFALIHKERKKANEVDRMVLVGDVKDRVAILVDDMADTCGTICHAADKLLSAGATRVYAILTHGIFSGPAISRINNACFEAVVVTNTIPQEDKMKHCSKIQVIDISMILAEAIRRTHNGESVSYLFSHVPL

lonf1_human LONRF1 = target: T5, lonf1_human LONRF1 (UniProt Q17RB8)
T5 sequence: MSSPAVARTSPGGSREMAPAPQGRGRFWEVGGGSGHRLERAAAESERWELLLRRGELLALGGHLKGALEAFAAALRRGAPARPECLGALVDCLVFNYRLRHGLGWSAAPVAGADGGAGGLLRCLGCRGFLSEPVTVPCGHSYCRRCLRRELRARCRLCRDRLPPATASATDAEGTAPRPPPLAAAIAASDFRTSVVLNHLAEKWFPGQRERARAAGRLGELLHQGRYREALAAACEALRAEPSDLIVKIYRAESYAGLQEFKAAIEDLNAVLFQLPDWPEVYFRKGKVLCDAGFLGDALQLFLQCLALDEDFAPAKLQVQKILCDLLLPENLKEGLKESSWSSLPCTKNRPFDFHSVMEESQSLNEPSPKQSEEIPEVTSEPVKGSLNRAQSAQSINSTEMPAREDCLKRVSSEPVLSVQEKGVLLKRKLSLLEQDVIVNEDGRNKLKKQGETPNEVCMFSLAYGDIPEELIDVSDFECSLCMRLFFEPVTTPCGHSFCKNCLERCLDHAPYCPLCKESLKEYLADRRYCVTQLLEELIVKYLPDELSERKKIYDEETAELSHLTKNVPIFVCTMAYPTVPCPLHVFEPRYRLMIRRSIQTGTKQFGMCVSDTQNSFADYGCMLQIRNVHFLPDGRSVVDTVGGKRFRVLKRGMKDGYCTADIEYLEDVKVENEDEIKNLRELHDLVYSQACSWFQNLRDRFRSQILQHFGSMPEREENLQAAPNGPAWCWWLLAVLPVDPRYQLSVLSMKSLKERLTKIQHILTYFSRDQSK

tle5_human TLE5 = target: T6, tle5_human TLE5 (UniProt Q08117)
T6 sequence: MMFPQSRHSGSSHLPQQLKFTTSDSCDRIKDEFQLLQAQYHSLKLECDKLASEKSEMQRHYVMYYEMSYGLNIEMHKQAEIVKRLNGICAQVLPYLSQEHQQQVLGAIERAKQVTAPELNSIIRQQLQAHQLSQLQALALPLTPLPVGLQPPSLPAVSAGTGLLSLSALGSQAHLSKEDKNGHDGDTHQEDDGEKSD

ar6p1_human ARL6IP1 = ar6p1_human ARL6IP1 (UniProt Q15041)
traf1_human TRAF1 = target: T7, traf1_human TRAF1 (UniProt Q13077)
T7 sequence: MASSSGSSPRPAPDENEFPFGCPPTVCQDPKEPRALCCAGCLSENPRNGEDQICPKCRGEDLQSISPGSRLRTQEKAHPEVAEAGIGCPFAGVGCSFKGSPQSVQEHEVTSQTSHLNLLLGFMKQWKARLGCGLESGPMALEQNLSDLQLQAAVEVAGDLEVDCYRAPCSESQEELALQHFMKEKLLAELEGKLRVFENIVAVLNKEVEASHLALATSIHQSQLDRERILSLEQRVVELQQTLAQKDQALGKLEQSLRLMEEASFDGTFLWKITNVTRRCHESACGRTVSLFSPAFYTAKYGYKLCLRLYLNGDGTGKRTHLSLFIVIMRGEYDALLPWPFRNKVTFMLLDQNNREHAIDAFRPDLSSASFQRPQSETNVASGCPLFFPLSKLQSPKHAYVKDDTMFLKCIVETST

Chain of ar6p1_human ARL6IP1 (Q15041 whole entry): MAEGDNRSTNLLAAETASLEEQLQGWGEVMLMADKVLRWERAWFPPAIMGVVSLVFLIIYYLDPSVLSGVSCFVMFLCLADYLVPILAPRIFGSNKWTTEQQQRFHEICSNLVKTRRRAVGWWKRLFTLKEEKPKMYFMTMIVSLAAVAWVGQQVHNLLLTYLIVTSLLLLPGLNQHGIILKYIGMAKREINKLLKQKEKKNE

## Golgi reassembly-stacking protein 2 (Homo sapiens) (from UniProt Q9H8Y8) L320R
acy3_human ACY3
  effect of a mutation on the interaction: disrupting interaction strength
prdx3_human PRDX3
  effect of a mutation on the interaction: disrupting interaction strength
bend5_human BEND5
  effect of a mutation on the interaction: with no effect
dpyl2_human DPYSL2
  effect of a mutation on the interaction: with no effect
prps1_human PRPS1
  effect of a mutation on the interaction: with no effect
lonf1_human LONRF1
  effect of a mutation on the interaction: with no effect
tle5_human TLE5
  effect of a mutation on the interaction: disrupting interaction strength
ar6p1_human ARL6IP1
  effect of a mutation on the interaction: with no effect
traf1_human TRAF1
  effect of a mutation on the interaction: with no effect
